Test results: article PMC8330776

Molecular target: SARS-CoV-2 S trimer (SARS-CoV-2) (UniProt P0DTC2)
Test: SPR

| Substance | Kd [nM] | koff [s⁻¹] | kon [M⁻¹ s⁻¹] |
| --- | --- | --- | --- |
| lectin from Datura stramonium (jimson weed, thorn apple) (natural protein) | 0.823 | 0.00144 | 1.75e+06 |
| phytohaemagglutinin PHA-P from Phaseolus vulgaris (red kidney bean) (natural protein) | 32.5 | 0.00501 | 154000 |
| lectin from Galanthus nivalis (snowdrop) (natural protein) | 1.53 | 0.00121 | 792000 |
| leucoagglutinin PHA-L from Phaseolus vulgaris (red kidney bean) (from UniProt P05087 21-272) (natural protein) | 37.6 | 0.00262 | 69700 |
| phytohaemagglutinin PHA-M from Phaseolus vulgaris (red kidney bean) (natural protein) | 2480 | 0.0196 | 7890 |
| sambucus sieboldiana lectin (natural protein) | 31.5 | 0.000886 | 28100 |
| succinyl-concanavalin A (natural protein) | 201000 | 0.00148 | 7.37 |
| erythroagglutinin PHA-E from Phaseolus vulgaris (red kidney bean) (from UniProt P05088 22-275) (natural protein) | 160 | 0.00331 | 20700 |
| Lentil lectin derived from Lens culinaris (natural protein) | 8.67 | 0.000919 | 106000 |
